Measured values reported in patent US20160272683A1 (Novo Nordisk, published 2016).
Values belong to the binder of their own block, whether it stands above or below them. Numbered stars: 1 amine (or outer) side, 2 acyl side, 3 side chain; on linkers, the order of the positions; unused ones are H or OH. Side chains are listed from the residue outwards. * marks the point of attachment. C20 diacid = O=C(O)CCCCCCCCCCCCCCCCCCC(=O)*; C18 diacid = O=C(O)CCCCCCCCCCCCCCCCC(=O)*; γGlu = O=C(O)[C@H](CCC(=O)[*:2])N[*:1]; Palmitoyl = CCCCCCCCCCCCCCCC(=O)*

Key:
[1] = molecular target: T1, human amylin 3(a) receptor (human calcitonin receptor co-expressed with RAMP-3) (human, UniProt P30988 25-474; O60896 24-148, limits assumed); assay: cell-based or functional assay
T1 sequence (looked up) 1: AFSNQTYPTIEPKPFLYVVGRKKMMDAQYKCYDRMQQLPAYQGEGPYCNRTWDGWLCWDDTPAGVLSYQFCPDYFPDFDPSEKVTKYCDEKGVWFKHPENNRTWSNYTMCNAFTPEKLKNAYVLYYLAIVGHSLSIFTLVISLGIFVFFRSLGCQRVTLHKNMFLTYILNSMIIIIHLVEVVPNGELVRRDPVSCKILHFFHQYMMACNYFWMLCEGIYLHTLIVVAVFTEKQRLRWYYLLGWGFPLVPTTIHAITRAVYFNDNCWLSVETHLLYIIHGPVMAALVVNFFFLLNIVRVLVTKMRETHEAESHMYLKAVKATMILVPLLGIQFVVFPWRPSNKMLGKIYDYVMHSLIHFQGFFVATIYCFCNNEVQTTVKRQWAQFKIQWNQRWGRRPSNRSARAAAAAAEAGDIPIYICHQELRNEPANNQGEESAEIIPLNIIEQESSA
T1 sequence (looked up) 2: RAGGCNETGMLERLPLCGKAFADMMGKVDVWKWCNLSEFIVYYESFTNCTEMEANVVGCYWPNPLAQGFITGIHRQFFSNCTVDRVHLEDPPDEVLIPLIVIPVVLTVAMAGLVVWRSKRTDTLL

[2] = molecular target: T2, human calcitonin receptor (human, UniProt P30988 25-474); assay: cell-based or functional assay
T2 sequence (looked up): T1 sequence (looked up) 1

B2: [N-terminal(C20 diacid-gGlu), des1, 30T, 31G, 32T]mimylin (peptide)
peptide: {C20 diacid-γGlu}-ASELSTAALGRLSAELHELATLPRTETGTGTP-NH2
SMILES: CC(C)C[C@H](NC(=O)[C@H](C)NC(=O)[C@H](C)NC(=O)[C@@H](NC(=O)[C@H](CO)NC(=O)[C@H](CC(C)C)NC(=O)[C@H](CCC(=O)O)NC(=O)[C@H](CO)NC(=O)[C@H](C)NC(=O)CC[C@H](NC(=O)CCCCCCCCCCCCCCCCCCC(=O)O)C(=O)O)[C@@H](C)O)C(=O)NCC(=O)N[C@@H](CCCNC(=N)N)C(=O)N[C@@H](CC(C)C)C(=O)N[C@@H](CO)C(=O)N[C@@H](C)C(=O)N[C@@H](CCC(=O)O)C(=O)N[C@@H](CC(C)C)C(=O)N[C@@H](Cc1c[nH]cn1)C(=O)N[C@@H](CCC(=O)O)C(=O)N[C@@H](CC(C)C)C(=O)N[C@@H](C)C(=O)N[C@H](C(=O)N[C@@H](CC(C)C)C(=O)N1CCC[C@H]1C(=O)N[C@@H](CCCNC(=N)N)C(=O)N[C@H](C(=O)N[C@@H](CCC(=O)O)C(=O)N[C@H](C(=O)NCC(=O)N[C@H](C(=O)NCC(=O)N[C@H](C(=O)N1CCC[C@H]1C(N)=O)[C@@H](C)O)[C@@H](C)O)[C@@H](C)O)[C@@H](C)O)[C@@H](C)O
hAmylin-R funct. EC50 (pM) [1]: 50 pM | hCTR funct. EC50 (pM) [2]: 45 pM

Binder: Palmitoyl-EASELSTAALGRLSAELHELATLPRTETGPESP-NH2 [[N-terminal(C16)]mimylin]
hAmylin-R funct. EC50 (pM) [1]: 10 pM | hCTR funct. EC50 (pM) [2]: 13 pM

B4: [N-terminal(C20 diacid-gGlu), des1, 30S, 31G, 33A]mimylin (peptide)
peptide: {C20 diacid-γGlu}-ASELSTAALGRLSAELHELATLPRTETGSGSA-NH2
SMILES: CC(C)C[C@H](NC(=O)[C@H](C)NC(=O)[C@H](C)NC(=O)[C@@H](NC(=O)[C@H](CO)NC(=O)[C@H](CC(C)C)NC(=O)[C@H](CCC(=O)O)NC(=O)[C@H](CO)NC(=O)[C@H](C)NC(=O)CC[C@H](NC(=O)CCCCCCCCCCCCCCCCCCC(=O)O)C(=O)O)[C@@H](C)O)C(=O)NCC(=O)N[C@@H](CCCNC(=N)N)C(=O)N[C@@H](CC(C)C)C(=O)N[C@@H](CO)C(=O)N[C@@H](C)C(=O)N[C@@H](CCC(=O)O)C(=O)N[C@@H](CC(C)C)C(=O)N[C@@H](Cc1c[nH]cn1)C(=O)N[C@@H](CCC(=O)O)C(=O)N[C@@H](CC(C)C)C(=O)N[C@@H](C)C(=O)N[C@H](C(=O)N[C@@H](CC(C)C)C(=O)N1CCC[C@H]1C(=O)N[C@@H](CCCNC(=N)N)C(=O)N[C@H](C(=O)N[C@@H](CCC(=O)O)C(=O)N[C@H](C(=O)NCC(=O)N[C@@H](CO)C(=O)NCC(=O)N[C@@H](CO)C(=O)N[C@@H](C)C(N)=O)[C@@H](C)O)[C@@H](C)O)[C@@H](C)O
hAmylin-R funct. EC50 (pM) [1]: 67 pM | hCTR funct. EC50 (pM) [2]: 40 pM

B5: [N-terminal(C18 diacid-gGlu), des1, 9V, 30S, 31G]mimylin (peptide)
peptide: {C18 diacid-γGlu}-ASELSTAVLGRLSAELHELATLPRTETGSGSP-NH2
SMILES: CC(C)C[C@H](NC(=O)[C@H](CCC(=O)O)NC(=O)[C@H](Cc1c[nH]cn1)NC(=O)[C@H](CC(C)C)NC(=O)[C@H](CCC(=O)O)NC(=O)[C@H](C)NC(=O)[C@H](CO)NC(=O)[C@H](CC(C)C)NC(=O)[C@H](CCCNC(=N)N)NC(=O)CNC(=O)[C@H](CC(C)C)NC(=O)[C@@H](NC(=O)[C@H](C)NC(=O)[C@@H](NC(=O)[C@H](CO)NC(=O)[C@H](CC(C)C)NC(=O)[C@H](CCC(=O)O)NC(=O)[C@H](CO)NC(=O)[C@H](C)NC(=O)CC[C@H](NC(=O)CCCCCCCCCCCCCCCCC(=O)O)C(=O)O)[C@@H](C)O)C(C)C)C(=O)N[C@@H](C)C(=O)N[C@H](C(=O)N[C@@H](CC(C)C)C(=O)N1CCC[C@H]1C(=O)N[C@@H](CCCNC(=N)N)C(=O)N[C@H](C(=O)N[C@@H](CCC(=O)O)C(=O)N[C@H](C(=O)NCC(=O)N[C@@H](CO)C(=O)NCC(=O)N[C@@H](CO)C(=O)N1CCC[C@H]1C(N)=O)[C@@H](C)O)[C@@H](C)O)[C@@H](C)O
hAmylin-R funct. EC50 (pM) [1]: 10 pM | hCTR funct. EC50 (pM) [2]: 14 pM

B6: [N-terminal(C20 diacid-gGlu), des1, 15E, 30S, 31G]mimylin (peptide)
peptide: {C20 diacid-γGlu}-ASELSTAALGRLSEELHELATLPRTETGSGSP-NH2
SMILES: CC(C)C[C@H](NC(=O)[C@H](C)NC(=O)[C@H](C)NC(=O)[C@@H](NC(=O)[C@H](CO)NC(=O)[C@H](CC(C)C)NC(=O)[C@H](CCC(=O)O)NC(=O)[C@H](CO)NC(=O)[C@H](C)NC(=O)CC[C@H](NC(=O)CCCCCCCCCCCCCCCCCCC(=O)O)C(=O)O)[C@@H](C)O)C(=O)NCC(=O)N[C@@H](CCCNC(=N)N)C(=O)N[C@@H](CC(C)C)C(=O)N[C@@H](CO)C(=O)N[C@@H](CCC(=O)O)C(=O)N[C@@H](CCC(=O)O)C(=O)N[C@@H](CC(C)C)C(=O)N[C@@H](Cc1c[nH]cn1)C(=O)N[C@@H](CCC(=O)O)C(=O)N[C@@H](CC(C)C)C(=O)N[C@@H](C)C(=O)N[C@H](C(=O)N[C@@H](CC(C)C)C(=O)N1CCC[C@H]1C(=O)N[C@@H](CCCNC(=N)N)C(=O)N[C@H](C(=O)N[C@@H](CCC(=O)O)C(=O)N[C@H](C(=O)NCC(=O)N[C@@H](CO)C(=O)NCC(=O)N[C@@H](CO)C(=O)N1CCC[C@H]1C(N)=O)[C@@H](C)O)[C@@H](C)O)[C@@H](C)O
hAmylin-R funct. EC50 (pM) [1]: 41 pM | hCTR funct. EC50 (pM) [2]: 25 pM

Binder: {C20 diacid-γGlu}-ASELSTAALGHLSAELHELATLPRTETGSGSP-NH2 [[N-terminal(C20 diacid-gGlu), des1, 12H, 30S, 31G]mimylin]
hAmylin-R funct. EC50 (pM) [1]: 17 pM | hCTR funct. EC50 (pM) [2]: 12 pM

Further lines, results first:

hAmylin-R funct. EC50 (pM) [1]: 27 pM | hCTR funct. EC50 (pM) [2]: 18 pM
B1: [N-terminal(C20 diacid-gGlu), des1, 25H, 30S, 31G]mimylin (peptide)
peptide: {C20 diacid-γGlu}-ASELSTAALGRLSAELHELATLPHTETGSGSP-NH2
SMILES: CC(C)C[C@H](NC(=O)[C@H](C)NC(=O)[C@H](C)NC(=O)[C@@H](NC(=O)[C@H](CO)NC(=O)[C@H](CC(C)C)NC(=O)[C@H](CCC(=O)O)NC(=O)[C@H](CO)NC(=O)[C@H](C)NC(=O)CC[C@H](NC(=O)CCCCCCCCCCCCCCCCCCC(=O)O)C(=O)O)[C@@H](C)O)C(=O)NCC(=O)N[C@@H](CCCNC(=N)N)C(=O)N[C@@H](CC(C)C)C(=O)N[C@@H](CO)C(=O)N[C@@H](C)C(=O)N[C@@H](CCC(=O)O)C(=O)N[C@@H](CC(C)C)C(=O)N[C@@H](Cc1c[nH]cn1)C(=O)N[C@@H](CCC(=O)O)C(=O)N[C@@H](CC(C)C)C(=O)N[C@@H](C)C(=O)N[C@H](C(=O)N[C@@H](CC(C)C)C(=O)N1CCC[C@H]1C(=O)N[C@@H](Cc1c[nH]cn1)C(=O)N[C@H](C(=O)N[C@@H](CCC(=O)O)C(=O)N[C@H](C(=O)NCC(=O)N[C@@H](CO)C(=O)NCC(=O)N[C@@H](CO)C(=O)N1CCC[C@H]1C(N)=O)[C@@H](C)O)[C@@H](C)O)[C@@H](C)O

hAmylin-R funct. EC50 (pM) [1]: 80 pM | hCTR funct. EC50 (pM) [2]: 19 pM
B3: [N-terminal(C18 diacid-gGlu), des1, 30S, 31G, 32P]mimylin (peptide)
peptide: {C18 diacid-γGlu}-ASELSTAALGRLSAELHELATLPRTETGSGPP-NH2
SMILES: CC(C)C[C@H](NC(=O)[C@H](C)NC(=O)[C@H](C)NC(=O)[C@@H](NC(=O)[C@H](CO)NC(=O)[C@H](CC(C)C)NC(=O)[C@H](CCC(=O)O)NC(=O)[C@H](CO)NC(=O)[C@H](C)NC(=O)CC[C@H](NC(=O)CCCCCCCCCCCCCCCCC(=O)O)C(=O)O)[C@@H](C)O)C(=O)NCC(=O)N[C@@H](CCCNC(=N)N)C(=O)N[C@@H](CC(C)C)C(=O)N[C@@H](CO)C(=O)N[C@@H](C)C(=O)N[C@@H](CCC(=O)O)C(=O)N[C@@H](CC(C)C)C(=O)N[C@@H](Cc1c[nH]cn1)C(=O)N[C@@H](CCC(=O)O)C(=O)N[C@@H](CC(C)C)C(=O)N[C@@H](C)C(=O)N[C@H](C(=O)N[C@@H](CC(C)C)C(=O)N1CCC[C@H]1C(=O)N[C@@H](CCCNC(=N)N)C(=O)N[C@H](C(=O)N[C@@H](CCC(=O)O)C(=O)N[C@H](C(=O)NCC(=O)N[C@@H](CO)C(=O)NCC(=O)N1CCC[C@H]1C(=O)N1CCC[C@H]1C(N)=O)[C@@H](C)O)[C@@H](C)O)[C@@H](C)O

hAmylin-R funct. EC50 (pM) [1]: 36 pM | hCTR funct. EC50 (pM) [2]: 27 pM
Binder: Ac-ASK([γGlu-C20 diacid])LSTAALGRLSAELHELATLPRTETGSGSP-NH2 [[N-terminal(acetyl), des1, 4K(C20 diacid-gGlu), 30S, 31G]mimylin]

hAmylin-R funct. EC50 (pM) [1]: 32 pM | hCTR funct. EC50 (pM) [2]: 19 pM
Binder: Ac-ASELSTAALGRLSAELHK([γGlu-C20 diacid])LATLPRTETGSGSP-NH2 [[N-terminal(acetyl), des1, 19K(C20 diacid-gGlu), 30S, 31G]mimylin]

hAmylin-R funct. EC50 (pM) [1]: 21 pM | hCTR funct. EC50 (pM) [2]: 28 pM
Binder: Ac-ASELSTAALGRLSAK([γGlu-C20 diacid])LHELATLPRTETGSGSP-NH2 [[N-terminal(acetyl), des1, 16K(C20 diacid-gGlu), 30S, 31G]mimylin]
